# Test results published in patent EP4792821A2 (Beijing Youcare Kechuang Pharmaceutical Technology Co., Ltd., dated 2026).
# The star is where a group is joined. Succinyl(4-O-cholesteryl) = CC(C)CCC[C@@H](C)[C@H]1CC[C@H]2[C@@H]3CC=C4C[C@@H](OC(=O)CCC(=O)*)CC[C@]4(C)[C@H]3CC[C@]12C
# B1: Compound 12 (peptide)
# peptide: Ac-FDASIEEVNRRIEESLRRIEESDRRLEVNKKAGSGSGK(Succinyl(4-O-cholesteryl))-NH2
# SMILES: CC[C@H](C)[C@H](NC(=O)[C@H](CO)NC(=O)[C@H](C)NC(=O)[C@H](CC(=O)O)NC(=O)[C@H](Cc1ccccc1)NC(C)=O)C(=O)N[C@@H](CCC(=O)O)C(=O)N[C@@H](CCC(=O)O)C(=O)N[C@H](C(=O)N[C@@H](CC(N)=O)C(=O)N[C@@H](CCCNC(=N)N)C(=O)N[C@@H](CCCNC(=N)N)C(=O)N[C@H](C(=O)N[C@@H](CCC(=O)O)C(=O)N[C@@H](CCC(=O)O)C(=O)N[C@@H](CO)C(=O)N[C@@H](CC(C)C)C(=O)N[C@@H](CCCNC(=N)N)C(=O)N[C@@H](CCCNC(=N)N)C(=O)N[C@H](C(=O)N[C@@H](CCC(=O)O)C(=O)N[C@@H](CCC(=O)O)C(=O)N[C@@H](CO)C(=O)N[C@@H](CC(=O)O)C(=O)N[C@@H](CCCNC(=N)N)C(=O)N[C@@H](CCCNC(=N)N)C(=O)N[C@@H](CC(C)C)C(=O)N[C@@H](CCC(=O)O)C(=O)N[C@H](C(=O)N[C@@H](CC(N)=O)C(=O)N[C@@H](CCCCN)C(=O)N[C@@H](CCCCN)C(=O)N[C@@H](C)C(=O)NCC(=O)N[C@@H](CO)C(=O)NCC(=O)N[C@@H](CO)C(=O)NCC(=O)N[C@@H](CCCCNC(=O)CCC(=O)O[C@H]1CC[C@@]2(C)C(=CC[C@H]3[C@@H]4CC[C@H]([C@H](C)CCCC(C)C)[C@@]4(C)CC[C@@H]32)C1)C(N)=O)C(C)C)[C@@H](C)CC)[C@@H](C)CC)C(C)C
# B2: Compound 10 (peptide)
# peptide: Ac-KIEEVNKKIEESLKKIEESDKKLEEVNKKLEAAAKK(Succinyl(4-O-cholesteryl))-NH2
# SMILES: CC[C@H](C)[C@H](NC(=O)[C@H](CCCCN)NC(C)=O)C(=O)N[C@@H](CCC(=O)O)C(=O)N[C@@H](CCC(=O)O)C(=O)N[C@H](C(=O)N[C@@H](CC(N)=O)C(=O)N[C@@H](CCCCN)C(=O)N[C@@H](CCCCN)C(=O)N[C@H](C(=O)N[C@@H](CCC(=O)O)C(=O)N[C@@H](CCC(=O)O)C(=O)N[C@@H](CO)C(=O)N[C@@H](CC(C)C)C(=O)N[C@@H](CCCCN)C(=O)N[C@@H](CCCCN)C(=O)N[C@H](C(=O)N[C@@H](CCC(=O)O)C(=O)N[C@@H](CCC(=O)O)C(=O)N[C@@H](CO)C(=O)N[C@@H](CC(=O)O)C(=O)N[C@@H](CCCCN)C(=O)N[C@@H](CCCCN)C(=O)N[C@@H](CC(C)C)C(=O)N[C@@H](CCC(=O)O)C(=O)N[C@@H](CCC(=O)O)C(=O)N[C@H](C(=O)N[C@@H](CC(N)=O)C(=O)N[C@@H](CCCCN)C(=O)N[C@@H](CCCCN)C(=O)N[C@@H](CC(C)C)C(=O)N[C@@H](CCC(=O)O)C(=O)N[C@@H](C)C(=O)N[C@@H](C)C(=O)N[C@@H](C)C(=O)N[C@@H](CCCCN)C(=O)N[C@@H](CCCCNC(=O)CCC(=O)O[C@H]1CC[C@@]2(C)C(=CC[C@H]3[C@@H]4CC[C@H]([C@H](C)CCCC(C)C)[C@@]4(C)CC[C@@H]32)C1)C(N)=O)C(C)C)[C@@H](C)CC)[C@@H](C)CC)C(C)C
# Target: F protein of RSV A long virus strain (Respiratory Syncytial Virus (RSV) A …, UniProt P12568 26-574)
# Sequence (P12568 26-574): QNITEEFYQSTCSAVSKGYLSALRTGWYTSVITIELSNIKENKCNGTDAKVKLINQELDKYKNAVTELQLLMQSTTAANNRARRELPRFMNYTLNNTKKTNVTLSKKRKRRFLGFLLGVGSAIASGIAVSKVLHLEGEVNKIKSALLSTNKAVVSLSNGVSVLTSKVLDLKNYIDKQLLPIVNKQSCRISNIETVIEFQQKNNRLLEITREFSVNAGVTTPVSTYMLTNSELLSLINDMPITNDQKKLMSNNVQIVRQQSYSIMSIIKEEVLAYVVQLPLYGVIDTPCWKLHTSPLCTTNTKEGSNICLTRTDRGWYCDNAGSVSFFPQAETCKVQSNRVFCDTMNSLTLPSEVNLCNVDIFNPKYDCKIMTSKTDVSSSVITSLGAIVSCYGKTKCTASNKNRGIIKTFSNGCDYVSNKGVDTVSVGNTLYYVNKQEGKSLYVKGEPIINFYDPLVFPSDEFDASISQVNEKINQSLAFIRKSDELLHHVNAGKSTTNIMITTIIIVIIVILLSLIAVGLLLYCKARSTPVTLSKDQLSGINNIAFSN
# Assay: cell-based or functional assay
row,Binder,"IC50/nM, plaque reduction, RSV A long on HEp-2 cells (Table 2, Cell fusion inhibition activity) [nM]"
1,Ac-WDEFDKKIEEVNKKIEESLKKIEESDKKLEEVNKKLGSGSGK(Succinyl(4-O-cholesteryl))-NH2 [Compound 11],99.1
2,Ac-FDASIEEVNRRIEESLRRIEESDRRLEVNKKA-NH2 [Compound 1],1360
3,B1,28.4
4,B2,18.1
